According to publication PMC12572175, “A synergistic generative-ranking framework for tailored design of therapeutic single-domain antibodies” (Cell Discovery, 2025):
Numbering of substitutions follows the chain as printed. Numbers in names are those of the source.

B1: VHH3-M1 (VHH)
VHH: QVQLQDSGGGLVQAGGSLRLSCAVSGRTFSAHSVYTMGWFRQAPGKEREFVARIYWSSANTYYADSVKGRFTISRDNAKNTVDLQMNSLRPEDTAVYYCAARDGIPTSRTVGSYNYWGQGTQVTVSS
notes: redesigned variant of VHH3 (carries L90Q, IMGT numbering); Designed by TFDesign-sdAb; pComb3x with N-terminal OmpA signal peptide; also called VHH-M1; source: E. coli HB2151, purified (Ni-NTA or Protein A resin); also in lysis supernatant; not shown: FLAG, C-terminal, kept
B2: VHH3-M3 (VHH)
VHH: B1 VHH with D83Y
notes: redesigned variant of VHH3 (carries L90Q; differs from VHH3-M1 only at position 88, IMGT numbering); Designed by TFDesign-sdAb; pComb3x with N-terminal OmpA signal peptide; also called VHH-M3; source: E. coli HB2151, purified (Ni-NTA or Protein A resin); also in lysis supernatant; not shown: FLAG, C-terminal, kept

Molecular target: T1, Recombinant human TNFα (Homo sapiens, UniProt P01375)
T1 construct: human TNFα, residues 77-233 of GenBank AAA61198.1, behind an N-terminal signal peptide and 6x His tag; also called hTNFα; TFNα; source: Expi293, transient transfection, purified (Ni-NTA)
Experiment: ELISA; 100-200 ng/well antigen coated in PBS, sdAbs added in 3-fold serial dilutions, 1.5 h at 37 °C, detected with HRP anti-flag antibody
Conditions: both partners purified

T1 sequence (P01375 77-233): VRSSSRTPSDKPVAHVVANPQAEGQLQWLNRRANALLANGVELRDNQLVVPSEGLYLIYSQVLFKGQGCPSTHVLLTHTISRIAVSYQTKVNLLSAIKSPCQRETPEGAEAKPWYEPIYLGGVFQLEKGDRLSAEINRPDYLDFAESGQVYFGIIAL

Binder	binding result
B1	binds
B2	binds
